Drawing on publication PMC7875428, this text covers Kd for 1 substance.

Test [1] addresses 6×His-tagged human DSG2 EC1-5 (amino acids A1-A553) from wild-type Expi293F cells (human). Kind of test: BLI; biotinylated DSG2 variants loaded on streptavidin biosensors (immobilized at 1 μg/mL); FimH^LD or FimH^Q133K in solution, 10 μM to 156 nM, 15 min association, 20 min dissociation; 10 mM HEPES pH 7.4, 150 mM NaCl, 1 mM CaCl2, 3 mM EDTA, 0.005% P20, 1% BSA, 25°C; Octet-Red96; global 1:1 fit with drifting baseline; apparent constants. For orientation: Biolayer interferometry detects binding as a change in optical thickness at a sensor tip.

The target of test [2] is 6×His-tagged human DSG2 EC1-5 (amino acids A1-A553) from Expi293F GnTI- cells (human). The test is described as above.

For “lectin domain of FimH (FimH^LD, amino acids F1-G160) (from UniProt P08191 22-181) (domain or fragment)”, the Kd was 1600 nM in test [1] and 484 nM in test [2].
